Where two headings read alike, the source gives them in different places.

A word on the Kd: it is the constant that tells how readily two partners part at equilibrium.

Experiment [1] concerns the target T1, Taxol-stabilized microtubules assembled from bovine brain tubulin (bovine, UniProt Q6B856 1-445). Nature of the experiment: co-sedimentation.
The target of experiment [2] is T1, Taxol-stabilized microtubules assembled ….

B1: MAP65-1 (GFP-MAP65-1) (natural protein, Arabidopsis thaliana, UniProt Q9FLP0 1-587, looked up)
chain: MAVTDTESPHLGEITCGTLLEKLQEIWDEVGESDDERDKLLLQIEQECLDVYKRKVEQAAKSRAELLQTLSDANAELSSLTMSLGDKSLVGIPDKSSGTIKEQLAAIAPALEQLWQQKEERVREFSDVQSQIQKICGDIAGGLSNEVPIVDESDLSLKKLDDFQSQLQELQKEKSDRLRKVLEFVSTVHDLCAVLGLDFLSTVTEVHPSLDEDTSVQSKSISNETLSRLAKTVLTLKDDKKQRLQKLQELATQLIDLWNLMDTPDEERELFDHVTCNISSSVDEVTVPGALARDLIEQAEVEVDRLDQLKASRMKEIAFKKQSELEEIYARAHVEVNPESARERIMSLIDSGNVEPTELLADMDSQISKAKEEAFSRKDILDRVEKWMSACEEESWLEDYNRDQNRYSASRGAHLNLKRAEKARILVSKIPAMVDTLVAKTRAWEEEHSMSFAYDGVPLLAMLDEYGMLRQEREEEKRRLREQKKVQEQPHVEQESAFSTRPSPARPVSAKKTVGPRANNGGANGTHNRRLSLNANQNGSRSTAKEAGRRETLNRPAAPTNYVAISKEEAASSPVSGAADHQVPASP
Take B1: the Kd in experiment [1] is 21 ± 2 nM.

B2: MAP65-4 (GFP-MAP65-4) (natural protein, Arabidopsis thaliana, UniProt Q9LZY0 1-677, looked up)
chain: MIRNSTEQFSRIETTCGLLLRQLQEIWNEMGETEDEKDASLADIEKECLSVYKRKVEEASRGKANLLKEIAVGRAEIAAIGSSMGGQEIHSNSRLGENLKEELENVNVQLDGLRKRKAERMIRFNEVIDQLLKLSLQLGNPTDYLKKFAAEETDLSLQRLEELRSQLGELQNEKSKRLEEVECLLKTLNSLCSVLGEDFKGMIRGIHSSLVDSNTRDVSRSTLDKLDMMIVNLREAKLQRMQKVQDLAVSLLELWNLLDTPAEEQKIFHNVTCSIALTESEITEANILSVASIKRVEDEVIRLSKIKITKIKEVILRKRLELEEISRKMHMATEVLKSENFSVEAIESGVKDPEQLLEQIDSEIAKVKEEASSRKEILEKVEKWMSACEEESWLEEYNRDDNRYNAGRGAHLTLKRAEKARLLVNKLPGMVEALTAKVTAWENERGNEFLYDGVRVLSMLGQYKTVWEEKEHEKQRQRDMKKLHGQLITEQEALYGSKPSPNKSGKKPLRTPVNAAMNRKLSLGGAMLHQSLKHEKATLNSKRTKYYDQNATSRRDSALPTLSGRRNSELPGRIRSKNVPVAGKAARSPMLRKPLSPVTSNILNSPEDHHKDAYTTKERILTPKTNEEKKRAVPTTPAASVAMTEATTPFTPAVEKRMDEEDVIVEYSFEEVRAGFC
B2 gave a Kd in experiment [1] of 19 ± 2 nM.

B3: Ase1 (natural protein, yeast, UniProt P50275 1-885, looked up)
chain: METATSSPLPIKSRRNSENSGSTTVIPHMNPSLATPLTVSTMVNQSNSKEFMKLTPVRIRDFGSPLKNVSTNYHFLDSENGKGNTMDNMYRENFILISKDLEKLLENLNVIYQNIGYSNTEIITKEKIIFTTISNSIKQFFEQADEELKRLSAENGIEQDILNNILERINDPSGIKTIPDLYIRNAILLQESKTVPQSPKKPLSLLSKKAALDTAKKFVLGSFLPRLRDYLKSLITLKHLIQSVKENLPGLTEADNEAIAEFPELSTLTAYLLQIENGKGDIGLSMKFIIDNRKDILKGSAFKTINEESVKHMNEVIKIYEEEYERRFKSVLTKKVSISSICEQLGTPLATLIGEDFEQDLRSYGEEENSTSEIPNFHPVDRERMSKIDITLEKLQAIHKERADKKRLLMEQCQKLWTRLKISQEYIKTFMRNNSSLSTESLGRISKEVMRLEAMKKKLIKKLISDSWDKIQELWRTLQYSEESRSKFIIVFEELRNSATTLQEDELLLETCENELKRLEEKLTLYKPILKLISDFESLQEDQEFLERSSKDSSRLLSRNSHKILLTEEKMRKRITRHFPRVINDLRIKLEEADGLFDQPFLFKGKPLSEAIDIQQQEIEAKYPRCRVRMQRSKKGKCGANKENKVIKNTFKATESSIRVPIGLNLNDANITYKTPSKKTIQGLTKNDLSQENSLARHMQGTTKLSSPNRRATRLLAPTVISRNSKGNIERPTLNRNRSSDLSSSPRINHTHGEHAVKPRQLFPIPLNKVDTKGSHIPQLTKEKALELLKRSTGTTGKENVRSPERKSSLEDYAQKLSSPYKEPEHSIYKLSMSPEGKFQLNIQQKDIESGFDDTSMMEDENDKDFITWKNEQVSKLNGFSFTDI
On to B3, for which, in experiment [2], the Kd was 41 ± 7 nM.
